Results published in US20250339569A1 (3B PHARMACEUTICALS, published 2025).
Starred links: 1 amine or outer side, 2 acyl side, 3 side chain; linkers in the order of their positions; H or OH if unused. Positions of bridges follow the written chain, without caps; N, C: chain ends. Non-standard residues stand in square brackets, D forms with d. Primed or numbered codes have the meaning given here. *: point of attachment. Af3(DImAc) = 3-aminophenylalanine acylated on the ring amine with 2-{2,5-dioxo-octahydroimidazo[4,5-d]imidazolidin-1-yl}acetic acid, O=C(CN1C(=O)NC2NC(=O)NC21)Nc1cccc(C[C@H](N[*:1])C(=O)[*:2])c1; Af3(HySuc) = 3-amino-L-phenylalanine acylated on the ring amine with 2-(3,6-dioxo-1,2,3,6-tetrahydropyridazin-4-yl)acetic acid, O=C(Cc1cc(=O)[nH][nH]c1=O)Nc1cccc(C[C@H](N[*:1])C(=O)[*:2])c1; af3(ac-glu) = lower case: 3-amino-D-phenylalanine, ring amine acylated with N-acetyl-D-glutamic acid, CC(=O)N[C@H](CCC(=O)[*:3])C(=O)Nc1cccc(C[C@@H](N[*:1])C(=O)[*:2])c1; af3(ac-asp) = lower case: 3-amino-D-phenylalanine, ring amine acylated with N-acetyl-D-aspartic acid, CC(=O)N[C@H](CC(=O)[*:3])C(=O)Nc1cccc(C[C@@H](N[*:1])C(=O)[*:2])c1; Af3(TzPr) = 3-amino-L-phenylalanine acylated on the ring amine with 3-(1H-1,2,4-triazol-3-yl)propanoic acid, O=C(CCc1nc[nH]n1)Nc1cccc(C[C@H](N[*:1])C(=O)[*:2])c1; Af3(Ac-Glu) = 3-aminophenylalanine acylated on the ring amine with N-acetyl-glutamic acid, CC(=O)N[C@@H](CCC(=O)[*:3])C(=O)Nc1cccc(C[C@H](N[*:1])C(=O)[*:2])c1; Aph(HO-Succinyl) = 4-aminophenylalanine acylated on the ring amine with succinic acid (free carboxyl), O=C(CCC(=O)[*:3])Nc1ccc(C[C@H](N[*:1])C(=O)[*:2])cc1; Af3(Ac-Asp) = 3-aminophenylalanine acylated on the ring amine with N-acetyl-aspartic acid; APAc″ = 2-(4-(amino)piperidin-1-yl)acetic acid, NC1CCN(CC(=O)*)CC1; DOTA = O=C(O)CN1CCN(CC(=O)O)CCN(CC(=O)*)CCN(CC(=O)O)CC1; Trp(5-OH) = N[C@@H](Cc1c[nH]c2ccc(O)cc12)C(=O)O; mXylylene = c1cc(C[*:1])cc(C[*:2])c1; Aib = CC(C)(N)C(=O)O; βAla = NCCC(=O)O; Sar = CNCC(=O)O

target: human carbonic anhydrase 9 (CAIX) (human, UniProt Q16790 38-459); experiment: FACS competition on HT-29 cells against tracer 3BP-2776; pIC50 category C = pIC50 6.1-7.0
Method: (§1) CAIX-expressing human HT-29 colorectal cancer cells (DSMZ, RRID: CVCL_0320) were cultured in McCoys's 5A modified medium (Biochrom, #F1015) including 10% fetal calf serum (FCS), 2 mM L-glutamine, 100 U/ml penicillin and 100 μg/mL streptomycin. Cells were detached with Accutase (Biolegend, #423201) and washed in FACS buffer (PBS including 1% FCS). Cells were diluted in FACS buffer to a final concentration of 500.000 cells per ml. 200 μL of the cell suspension were transferred to a u-shaped non-binding 96-well plate (Greiner) and cells were washed in ice-cold FACS buffer.
(§2) When biotinylated compounds were used an additional incubation step with 1 μg/mL APC-Streptavidin (Miltenyi; #130-106-791) in 50 μL FACS buffer for 30 minutes on ice was performed.
(§3) Cells were washed twice with ice-cold FACS buffer and analyzed in an Attune NxT flow cytometer (Thermo Fisher). Median fluorescence intensities (MFI) of the APC/Cy5-channel were calculated by Attune NxT software.

Binder	pIC50
Ac-VYCEGDWL[dT]WQC-NH2 (linker 3-12 via mXylylene; SMILES CC(=O)N[C@H](C(=O)N[C@@H](Cc1ccc(O)cc1)C(=O)N[C@H]1CSCc2cccc(c2)CSC[C@@H](C(N)=O)NC(=O)[C@H](CCC(N)=O)NC(=O)[C@H](Cc2c[nH]c3ccccc23)NC(=O)[C@@H]([C@H](C)O)NC(=O)[C@H](CC(C)C)NC(=O)[C@H](Cc2c[nH]c3ccccc23)NC(=O)[C@H](CC(=O)O)NC(=O)CNC(=O)[C@H](CCC(=O)O)NC1=O)C(C)C, also called Ac-Val-Tyr-[Cys(3MeBn)-Glu-Gly-Asp-Trp-Leu-thr-Trp-Gln-Cys]-NH2) [3BP-3049]	6.1 to 7 pic50
Ac-MVYCEGDWLTWQC-NH2 (linker 4-13 via mXylylene; SMILES CSCC[C@H](NC(C)=O)C(=O)N[C@H](C(=O)N[C@@H](Cc1ccc(O)cc1)C(=O)N[C@H]1CSCc2cccc(c2)CSC[C@@H](C(N)=O)NC(=O)[C@H](CCC(N)=O)NC(=O)[C@H](Cc2c[nH]c3ccccc23)NC(=O)[C@H]([C@@H](C)O)NC(=O)[C@H](CC(C)C)NC(=O)[C@H](Cc2c[nH]c3ccccc23)NC(=O)[C@H](CC(=O)O)NC(=O)CNC(=O)[C@H](CCC(=O)O)NC1=O)C(C)C) [3BP-2836]	6.1 to 7 pic50
Ac-VYC[dE]GDWLTWQC-NH2 (linker 3-12 via mXylylene; SMILES CC(=O)N[C@H](C(=O)N[C@@H](Cc1ccc(O)cc1)C(=O)N[C@H]1CSCc2cccc(c2)CSC[C@@H](C(N)=O)NC(=O)[C@H](CCC(N)=O)NC(=O)[C@H](Cc2c[nH]c3ccccc23)NC(=O)[C@H]([C@@H](C)O)NC(=O)[C@H](CC(C)C)NC(=O)[C@H](Cc2c[nH]c3ccccc23)NC(=O)[C@H](CC(=O)O)NC(=O)CNC(=O)[C@@H](CCC(=O)O)NC1=O)C(C)C) [3BP-3045]	6.1 to 7 pic50
Ac-VYCEGDW[dL]TWQC-NH2 (linker 3-12 via mXylylene; SMILES CC(=O)N[C@H](C(=O)N[C@@H](Cc1ccc(O)cc1)C(=O)N[C@H]1CSCc2cccc(c2)CSC[C@@H](C(N)=O)NC(=O)[C@H](CCC(N)=O)NC(=O)[C@H](Cc2c[nH]c3ccccc23)NC(=O)[C@H]([C@@H](C)O)NC(=O)[C@@H](CC(C)C)NC(=O)[C@H](Cc2c[nH]c3ccccc23)NC(=O)[C@H](CC(=O)O)NC(=O)CNC(=O)[C@H](CCC(=O)O)NC1=O)C(C)C, also called Ac-Val-Tyr-[Cys(3MeBn)-Glu-Gly-Asp-Trp-leu-Thr-Trp-Gln-Cys]-NH2) [3BP-3048]	6.1 to 7 pic50
Ac-VYCE[Sar]D[Trp(5-OH)]LTWQC-NH2 (linker 3-12 via mXylylene; SMILES CC(=O)N[C@H](C(=O)N[C@@H](Cc1ccc(O)cc1)C(=O)N[C@H]1CSCc2cccc(c2)CSC[C@@H](C(N)=O)NC(=O)[C@H](CCC(N)=O)NC(=O)[C@H](Cc2c[nH]c3ccccc23)NC(=O)[C@H]([C@@H](C)O)NC(=O)[C@H](CC(C)C)NC(=O)[C@H](Cc2c[nH]c3ccc(O)cc23)NC(=O)[C@H](CC(=O)O)NC(=O)CN(C)C(=O)[C@H](CCC(=O)O)NC1=O)C(C)C, also called Ac-Val-Tyr-[Cys(3MeBn)-Glu-Nmg-Asp-Hyw-Leu-Thr-Trp-Gln-Cys]-NH2) [3BP-3310]	6.1 to 7 pic50
Ac-V[dY]CEGDWLTWQC-NH2 (linker 3-12 via mXylylene; SMILES CC(=O)N[C@H](C(=O)N[C@H](Cc1ccc(O)cc1)C(=O)N[C@H]1CSCc2cccc(c2)CSC[C@@H](C(N)=O)NC(=O)[C@H](CCC(N)=O)NC(=O)[C@H](Cc2c[nH]c3ccccc23)NC(=O)[C@H]([C@@H](C)O)NC(=O)[C@H](CC(C)C)NC(=O)[C@H](Cc2c[nH]c3ccccc23)NC(=O)[C@H](CC(=O)O)NC(=O)CNC(=O)[C@H](CCC(=O)O)NC1=O)C(C)C) [3BP-3044]	6.1 to 7 pic50
Ac-VYCEG[Aib]WLTWQC-NH2 (linker 3-12 via mXylylene; SMILES CC(=O)N[C@H](C(=O)N[C@@H](Cc1ccc(O)cc1)C(=O)N[C@H]1CSCc2cccc(c2)CSC[C@@H](C(N)=O)NC(=O)[C@H](CCC(N)=O)NC(=O)[C@H](Cc2c[nH]c3ccccc23)NC(=O)[C@H]([C@@H](C)O)NC(=O)[C@H](CC(C)C)NC(=O)[C@H](Cc2c[nH]c3ccccc23)NC(=O)C(C)(C)NC(=O)CNC(=O)[C@H](CCC(=O)O)NC1=O)C(C)C, also called Ac-Val-Tyr-[Cys(3MeBn)-Glu-Gly-Aib-Trp-Leu-Thr-Trp-Gln-Cys]-NH2) [3BP-3061]	6.1 to 7 pic50
Ac-VYCEG[dD]WLTWQC-NH2 (linker 3-12 via mXylylene; SMILES CC(=O)N[C@H](C(=O)N[C@@H](Cc1ccc(O)cc1)C(=O)N[C@H]1CSCc2cccc(c2)CSC[C@@H](C(N)=O)NC(=O)[C@H](CCC(N)=O)NC(=O)[C@H](Cc2c[nH]c3ccccc23)NC(=O)[C@H]([C@@H](C)O)NC(=O)[C@H](CC(C)C)NC(=O)[C@H](Cc2c[nH]c3ccccc23)NC(=O)[C@@H](CC(=O)O)NC(=O)CNC(=O)[C@H](CCC(=O)O)NC1=O)C(C)C, also called Ac-Val-Tyr-[Cys(3MeBn)-Glu-Gly-asp-Trp-Leu-Thr-Trp-Gln-Cys]-NH2) [3BP-3047]	6.1 to 7 pic50
Ac-VYCEGDWATWQC-NH2 (linker 3-12 via mXylylene; SMILES CC(=O)N[C@H](C(=O)N[C@@H](Cc1ccc(O)cc1)C(=O)N[C@H]1CSCc2cccc(c2)CSC[C@@H](C(N)=O)NC(=O)[C@H](CCC(N)=O)NC(=O)[C@H](Cc2c[nH]c3ccccc23)NC(=O)[C@H]([C@@H](C)O)NC(=O)[C@H](C)NC(=O)[C@H](Cc2c[nH]c3ccccc23)NC(=O)[C@H](CC(=O)O)NC(=O)CNC(=O)[C@H](CCC(=O)O)NC1=O)C(C)C) [3BP-3055]	6.1 to 7 pic50
Ac-VYCE[Sar]DWL[dA]WQC-NH2 (linker 3-12 via mXylylene; SMILES CC(=O)N[C@H](C(=O)N[C@@H](Cc1ccc(O)cc1)C(=O)N[C@H]1CSCc2cccc(c2)CSC[C@@H](C(N)=O)NC(=O)[C@H](CCC(N)=O)NC(=O)[C@H](Cc2c[nH]c3ccccc23)NC(=O)[C@@H](C)NC(=O)[C@H](CC(C)C)NC(=O)[C@H](Cc2c[nH]c3ccccc23)NC(=O)[C@H](CC(=O)O)NC(=O)CN(C)C(=O)[C@H](CCC(=O)O)NC1=O)C(C)C, also called Ac-Val-Tyr-[Cys(3MeBn)-Glu-Nmg-Asp-Trp-Leu-ala-Trp-Gln-Cys]-NH2) [3BP-3309]	6.1 to 7 pic50
Ac-CE[Sar]DWLTWQC-NH2 (linker 1-10 via mXylylene; SMILES CC(=O)N[C@H]1CSCc2cccc(c2)CSC[C@@H](C(N)=O)NC(=O)[C@H](CCC(N)=O)NC(=O)[C@H](Cc2c[nH]c3ccccc23)NC(=O)[C@H]([C@@H](C)O)NC(=O)[C@H](CC(C)C)NC(=O)[C@H](Cc2c[nH]c3ccccc23)NC(=O)[C@H](CC(=O)O)NC(=O)CN(C)C(=O)[C@H](CCC(=O)O)NC1=O, also called Ac-[Cys(3MeBn)-Glu-Nmg-Asp-Trp-Leu-Thr-Trp-Gln-Cys]-NH2) [3BP-3325]	6.1 to 7 pic50
Ac-VY[dC][βAla]WLTWSC-NH2 (linker 3-10 via mXylylene; SMILES CC(=O)N[C@H](C(=O)N[C@@H](Cc1ccc(O)cc1)C(=O)N[C@@H]1CSCc2cccc(c2)CSC[C@@H](C(N)=O)NC(=O)[C@H](CO)NC(=O)[C@H](Cc2c[nH]c3ccccc23)NC(=O)[C@H]([C@@H](C)O)NC(=O)[C@H](CC(C)C)NC(=O)[C@H](Cc2c[nH]c3ccccc23)NC(=O)CCNC1=O)C(C)C, also called Ac-Val-Tyr-[cys(3mebn)-Bal-Trp-Leu-Thr-Trp-Ser-Cys]-NH2) [3BP-3604]	6.1 to 7 pic50

target: human carbonic anhydrase 9 (CAIX) (human, UniProt Q16790 38-459); experiment: FACS competition on HT-29 cells, competitor tracer 3BP-4149; category B = pIC50 7.1-8.0
Method: as §1, §2, §3

Binder	pIC50
{DOTA-APAc″}-VYCE[dP]D[Af3(DImAc)]LTWSC-NH2 (linker 3-12 via mXylylene) [3BP-4341]	7.1 to 8 pic50
{DOTA-APAc″}-VYCE[dP]D[af3(ac-glu)]LTWSC-NH2 (linker 3-12 via mXylylene; not fully specified) [3BP-4362]	7.1 to 8 pic50
{DOTA-APAc″}-VYCE[dP]D[Af3(Ac-Asp)]LTWSC-NH2 (linker 3-12 via mXylylene) [3BP-4363]	7.1 to 8 pic50
{DOTA-APAc″}-VYCE[dP]D[af3(ac-asp)]LTWSC-NH2 (linker 3-12 via mXylylene; not fully specified) [3BP-4364]	7.1 to 8 pic50
{DOTA-APAc″}-VYCE[dP]D[Af3(HySuc)]LTWSC-NH2 (linker 3-12 via mXylylene) [3BP-4322]	7.1 to 8 pic50
{DOTA-APAc″}-VYCE[dP]D[Af3(Ac-Glu)]LTWSC-NH2 (linker 3-12 via mXylylene) [3BP-4361]	7.1 to 8 pic50
{DOTA-APAc″}-VYCE[dP]D[Aph(HO-Succinyl)]LTWSC-NH2 (linker 3-12 via mXylylene) [3BP-4356]	7.1 to 8 pic50
{DOTA-APAc″}-VYCE[dP]D[Af3(TzPr)]LTWSC-NH2 (linker 3-12 via mXylylene) [3BP-4324]	7.1 to 8 pic50
